For orientation: EC50 (read off the curve) means the concentration that produces a half-maximal response. Broadly, the Kd is the equilibrium constant for the complex coming apart.

In assay [1] the target is T1, cynomolgus monkey GITR expressed on the cell surface (Macaca fascicularis (cynomolgus monkey)).
T1 construct: whole, on cells; also called MfGITR; Jurkat/hCD20/MfGITR cells
Description: flow cytometry, AF647-conjugated antibody on CD4+ CD69+ cynomolgus monkey primary T cells, donor 58947. On the procedure: FIG. 7 depicts antibody binding to CD69+ cynomolgus monkey primary T-cells. Primary cynomolgus monkey T-cells from 4 separate donors were stimulated in vitro with anti-CD2/anti-CD3/anti-CD28-coated beads. Cell-surface binding of AF647-conjugated mAb1 and AF647-conjugated IgG1 isotype control at a range of concentrations (8 pM to 200 nM) on CD69⁺ and CD69⁻ cynomolgus monkey primary CD4⁺ and CD8⁺ T-cells was detected using flow cytometry. Fluorescence intensity was plotted as geometric MFI. Mf, Macaca fascicularis (cynomolgus monkey)
Peripheral blood mononuclear cells (PBMC) were isolated from human or cynomolgus monkey whole blood (4 donors each) using density centrifugation through Ficoll-Paque PLUS in SepMate tubes (for human PBMC) or 50 mL conical tubes (for cynomolgus monkey PBMC) and transferred to a fresh conical tube for incubation in Red Blood Cell (RBC) Lysis Buffer. […] After 4 days, activation beads were removed from the culture using a MACSiMAG Separator, and cells were collected and counted.
Flow cytometry was used to evaluate mAb1 binding to human or cynomolgus monkey T-cells in activated PBMC. […] Data were analyzed with Flowio software. For EC₅₀ determinations, measured geometric MFI values were analyzed using a 4-parameter logistic equation over a 12-point response curve with GraphPad Prism.
(Flow cytometry measures light scatter and fluorescence of single cells or particles in a stream.)

Assay [2] addresses T2, hGITR.mFc (dimeric recombinant human GITR ectodomain protein, mouse Fc fusion) (human).
T2 construct: also called dimeric human GITR; dimeric GITR
T2 chain: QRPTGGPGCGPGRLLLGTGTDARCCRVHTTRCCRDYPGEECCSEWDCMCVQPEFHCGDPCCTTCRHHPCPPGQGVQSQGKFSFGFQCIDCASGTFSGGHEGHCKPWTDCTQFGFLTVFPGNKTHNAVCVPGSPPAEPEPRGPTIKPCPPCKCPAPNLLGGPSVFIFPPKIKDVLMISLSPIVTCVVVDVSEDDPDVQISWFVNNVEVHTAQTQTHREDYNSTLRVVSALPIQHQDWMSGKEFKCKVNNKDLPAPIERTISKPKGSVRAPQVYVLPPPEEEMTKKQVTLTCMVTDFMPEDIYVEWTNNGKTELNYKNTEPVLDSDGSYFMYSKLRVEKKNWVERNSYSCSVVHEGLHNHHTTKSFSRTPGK
In words: SPR Biacore T-200; purified antibody captured on anti-human Fc; 5 nM hGITR.mFc. As to the method:
For purified antibodies, Biacore experiments were performed as follows. Using a Biacore T-200 instrument, antibodies were captured for 30 seconds at a flow rate of 8 uL/min on a CM5 anti-humanFc-coupled surface. Approximately 120 RU of each antibody were captured. 10 nM hGITR.mmH (soluble monomeric hGITR, SEQ ID NO: 45) or 5 nM hGITR.mFc (dimeric Macaca fasicularis GITR, SEQ ID NO: 46) were injected over this surface for 5 minutes at a flow rate of 50 uL/min. Dissociation was measured for 10 min. The KD and t_{1/2} were calculated by fitting the double-referenced sensorgrams to a 1:1 binding model.
Background: SPR reads the build-up and loss of mass on a sensor chip optically.

Assay [3] concerns the target T3, hGITR.mmH (soluble monomeric recombinant human GITR ectodomain protein) (human).
T3 construct: also called monomeric human GITR
T3 chain: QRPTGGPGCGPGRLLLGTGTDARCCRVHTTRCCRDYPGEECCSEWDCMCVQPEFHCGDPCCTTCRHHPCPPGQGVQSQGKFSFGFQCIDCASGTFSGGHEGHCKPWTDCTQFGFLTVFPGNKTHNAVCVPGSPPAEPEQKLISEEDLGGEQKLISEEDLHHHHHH
Description: SPR Biacore 2000 25C; CHOt supernatant antibody captured on anti-human Fc; 100 nM hGITR.mmH. As to the method:
Biacore experiments for antibodies secreted in conditioned culture medium were performed as follows. Using a Biacore 2000 instrument at 25° C., antibodies were captured for 80 seconds at a flow rate of 8 uL/min on a CM5 anti-humanFc-coupled surface. Approximately 1000-2000 RU of each antibody were captured. 100 nM hGITR.mmH (soluble monomeric hGITR, SEQ ID NO: 45) or 50 nM hGITR.mFc (dimeric Macaca fasicularis GITR, SEQ ID NO: 46) were injected over this surface for 2 minutes at a flow rate of 50 uL/min. Dissociation was measured for 2 minutes. The KD and t_{1/2} were calculated by fitting the double-referenced sensorgrams to a 1:1 binding model.

Assay [4] has as its target T4, human GITR expressed on the cell surface (human, UniProt Q9Y5U5 26-241).
T4 sequence: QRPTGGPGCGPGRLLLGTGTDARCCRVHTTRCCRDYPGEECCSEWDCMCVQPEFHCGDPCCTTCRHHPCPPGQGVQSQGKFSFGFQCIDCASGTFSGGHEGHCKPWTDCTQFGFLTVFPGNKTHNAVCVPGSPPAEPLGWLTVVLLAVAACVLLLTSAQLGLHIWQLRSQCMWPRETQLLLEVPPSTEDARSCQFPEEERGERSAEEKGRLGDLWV
Description: cell-based or functional assay.

B1: mAb1 (antibody, human IgG1, kappa, V domains shown)
VH: QVQLQESGPGLVKPSETLSLTCIVSGGSISGYFWNWIRQPPGKGLEWIGYIYYSGTTIYNPSLKSRFTISLDTSKNQFSLKLTSVTAADTAVYYCARESYDPSPRYFDHWGQGTLVTVSS
VL: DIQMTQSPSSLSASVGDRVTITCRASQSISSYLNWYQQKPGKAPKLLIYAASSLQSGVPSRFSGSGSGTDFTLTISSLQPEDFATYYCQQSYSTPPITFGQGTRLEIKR
notes: Human IgG1; N101D variant of CompAb1; also called N101D Variant; N101D
B1: the “EC50 (read off the curve)” value in assay [1] is ~3 nM. Besides, in assay [2], the Kd was 0.104 nM and the t1/2 came to 71.7 min. Moreover, in assay [3], the Kd is 14.8 nM and the t1/2 stood at 7.52 min. In addition, in assay [4], the “EC50, anti-CD3-mediated primary CD4+ T-cell proliferation, Donor 1900G” value worked out at 0.43 nM; the “EC50, anti-CD3-mediated primary CD4+ T-cell proliferation, Donor 2000U” value was found to be 0.0391 nM; the “EC50, anti-CD3-mediated primary CD4+ T-cell proliferation, Donor 3600Y” value came to 17.2 nM; the “EC50, anti-CD3-mediated primary CD4+ T-cell proliferation, Donor 3800U” value was found to be 0.107 nM. Also, in assay [4], the “EC50, anti-CD3-mediated primary CD4+ T-cell proliferation, Donor 34001” value turned out to be 0.193 nM; the “Fold Change in Activity, anti-CD3-mediated primary CD4+ T-cell proliferation, Donor 1900G” value was 3.14 fold; the “Fold Change in Activity, anti-CD3-mediated primary CD4+ T-cell proliferation, Donor 2000U” value is 2.45 fold; the “Fold Change in Activity, anti-CD3-mediated primary CD4+ T-cell proliferation, Donor 3600Y” value is 2.3 fold. In addition, in assay [4], the “Fold Change in Activity, anti-CD3-mediated primary CD4+ T-cell proliferation, Donor 3800U” value was 2.45 fold; the “Fold Change in Activity, anti-CD3-mediated primary CD4+ T-cell proliferation, Donor 34001” value was 2.62 fold; the “Fold Change in Activity, anti-CD3-mediated primary CD4+ T-cell proliferation, Donor 41003” value was determined as 2.54 fold.

For the origin of these results see US20240076396A1 (Regeneron, published 2024).
